Measured values reported in paper PMC4486061 (Journal of Structural Biology, 2010).
Where “and” joins values, the source holds several entries; their conditions need not be identical. Equal entries are not always repeated.

Target: the molecule itself
Assay: PFO-PAGE

B1: SARS-CoV M protein endodomain, residues 107-221 (M_(107-221)) (domain or fragment)
chain: SMWSFNPETNILLNVPLRGTIVTRPLMESELVIGAVIIRGHLRMAGHSLGRCDIKDLPKEITVATSRTLSYYKLGASQRVGTDSGFAAYNRYRIGNYKLNTDHAGSNDNIALLVQ
stoichiometry N: 2 and 4 and 6
